The source of these data is PMC11730874.

Test [1] deals with T1, WT hRab23_(7-172) (untagged) (human) (UniProt Q9ULC3).
T1 sequence: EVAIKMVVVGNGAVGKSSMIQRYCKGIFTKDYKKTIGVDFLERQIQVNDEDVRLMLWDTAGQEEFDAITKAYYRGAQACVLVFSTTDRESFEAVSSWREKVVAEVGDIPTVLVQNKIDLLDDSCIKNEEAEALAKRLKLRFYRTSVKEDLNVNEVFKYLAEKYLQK

The target of test [2] is T2, hRab23_(7-172) Y79del (untagged) (human) (UniProt Q9ULC3).
T2 sequence: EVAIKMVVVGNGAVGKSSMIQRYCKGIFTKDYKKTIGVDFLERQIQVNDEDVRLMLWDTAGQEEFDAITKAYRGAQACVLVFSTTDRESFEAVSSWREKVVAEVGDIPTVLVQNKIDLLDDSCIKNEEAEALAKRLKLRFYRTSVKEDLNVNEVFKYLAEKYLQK

In the next test the target is T3, KIF17-mCitrine, Q9P2E2.
T3 chain: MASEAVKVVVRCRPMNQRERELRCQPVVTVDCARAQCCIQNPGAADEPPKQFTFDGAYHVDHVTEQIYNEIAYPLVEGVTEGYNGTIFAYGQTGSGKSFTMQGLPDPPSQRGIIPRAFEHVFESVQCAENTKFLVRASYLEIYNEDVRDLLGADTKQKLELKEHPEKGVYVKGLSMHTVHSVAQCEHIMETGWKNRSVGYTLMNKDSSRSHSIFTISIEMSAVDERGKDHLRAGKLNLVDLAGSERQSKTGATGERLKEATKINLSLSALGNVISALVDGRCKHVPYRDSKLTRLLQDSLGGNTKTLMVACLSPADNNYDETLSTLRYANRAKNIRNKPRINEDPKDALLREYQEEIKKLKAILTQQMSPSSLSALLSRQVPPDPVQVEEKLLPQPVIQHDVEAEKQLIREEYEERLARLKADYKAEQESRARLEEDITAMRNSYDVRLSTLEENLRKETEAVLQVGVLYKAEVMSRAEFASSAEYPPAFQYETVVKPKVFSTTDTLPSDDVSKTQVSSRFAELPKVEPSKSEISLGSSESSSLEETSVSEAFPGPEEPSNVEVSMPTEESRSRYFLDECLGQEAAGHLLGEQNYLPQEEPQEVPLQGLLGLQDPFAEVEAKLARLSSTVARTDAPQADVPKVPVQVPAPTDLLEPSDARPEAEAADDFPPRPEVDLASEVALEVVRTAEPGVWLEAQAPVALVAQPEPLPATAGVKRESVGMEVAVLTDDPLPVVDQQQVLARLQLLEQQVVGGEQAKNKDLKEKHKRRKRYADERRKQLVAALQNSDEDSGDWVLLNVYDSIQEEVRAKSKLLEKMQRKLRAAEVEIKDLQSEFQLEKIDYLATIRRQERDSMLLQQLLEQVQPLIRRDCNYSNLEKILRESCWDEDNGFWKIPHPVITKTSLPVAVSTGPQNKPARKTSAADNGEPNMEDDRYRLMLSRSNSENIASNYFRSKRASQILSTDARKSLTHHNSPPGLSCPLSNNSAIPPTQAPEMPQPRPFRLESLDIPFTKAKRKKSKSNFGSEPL
Briefly: pull-down (His-tag magnetic beads) with Western blot densitometry. The following applies: chain shown with the change; Rab23 proteins exchanged with GMPPNP; lysates from HEK293 cells transfected with KIF17-mCitrine; n = 3 independent experiments; parent: 100.00. In general terms: In western blotting, separated proteins are transferred to a membrane and probed.

Test [3] addresses T1, WT hRab23_(7-172) (untagged) (human). The source holds these as a separate data set.
Test [4] concerns the target T2, hRab23_(7-172) Y79del (untagged) (human). This is another data set of the same source.

B1: Inturned-Fuzzy (Intu-Fuz) complex (complex)
chain 1: MASVASCDSRPSSDELPGDPSSQEEDEDYDFEDRVSDSGSYSSASSDYDDLEPEWLDSVQKNGELFYLELSEDEEESLLPETPTVNHVRFSENEIIIEDDYKERKKYEPKLKQFTKILRRKRLLPKRCNKKNSNDNGPVSILKHQSNQKTGVIVQQRYKDVNVYVNPKKLTVIKAKEQLKLLEVLVGIIHQTKWSWRRTGKQGDGERLVVHGLLPGGSAMKSGQVLIGDVLVAVNDVDVTTENIERVLSCIPGPMQVKLTFENAYDVKRETSHPRQKKTQSNTSDLVKLLWGEEVEGIQQSGLNTPHIIMYLTLQLDSETSKEEQEILYHYPMSEASQKLKSVRGIFLTLCDMLENVTGTQVTSSSLLLNGKQIHVAYWKESDKLLLIGLPAEEVPLPRLRNMIENVIQTLKFMYGSLDSAFCQIENVPRLDHFFNLFFQRALQPAKLHSSASPSAQQYDASSAVLLDNLPGVRWLTLPLEIKMELDMALSDLEAADFAELSEDYYDMRRLYTILGSSLFYKGYLICSHLPKDDLIDIAVYCRHYCLLPLAAKQRIGQLIIWREVFPQHHLRPLADSSTEVFPEPEGRYFLLVVGLKHYMLCVLLEAGGCASKAIGSPGPDCVYVDQVKTTLHQLDGVDSRIDERLASSPVPCLSCADWFLTGSREKTDSLTTSPILSRLQGTSKVATSPTCRRTLFGDYSLKTRKPSPSCSSGGSDNGCEGGEDDGFSPHTTPDAVRKQRESQGSDGLEESGTLLKVTKKKSTLPNPFHLGNLKKDLPEKELEIYNTVKLTSGPENTLFHYVALETVQGIFITPTLEEVAQLSGSIHPQLIKNFHQCCLSIRAVFQQTLVEEKKKGLNSGDHSDSAKSVSSLNPVKEHGVLFECSPGNWTDQKKAPPVMAYWVVGRLFLHPKPQELYVCFHDSVTEIAIEIAFKLFFGLTL
chain 2: MGEEGTGGTVHLLCLAASSGVPLFCRSSRGGAPARQQLPFSVIGSLNGVHMFGQNLEVQLSSARTENTTVVWKSFHDSITLIVLSSEVGISELRLERLLQMVFGAMVLLVGLEELTNIRNVERLKKDLRASYCLIDSFLGDSELIGDLTQCVDCVIPPEGSLLQEALSGFAEAAGTTFVSLVVSGRVVAATEGWWRLGTPEAVLLPWLVGSLPPQTARDYPVYLPHGSPTVPHRLLTLTLLPSLELCLLCGPSPPLSQLYPQLLERWWQPLLDPLRACLPLGPRALPSGFPLHTDILGLLLLHLELKRCLFTVEPLGDKEPSPEQRRRLLRNFYTLVTSTHFPPEPGPPEKTEDEVYQAQLPRACYLVLGTEEPGTGVRLVALQLGLRRLLLLLSPQSPTHGLRSLATHTLHALTPLL
The molecule B1 had a GTPase-Glo luminescence (remaining GTP) relative to buffer control, GEF-aided nucleotide exchange; 3 uM Rab23, 2.25 uM Intu-Fuz, 5 uM GTP, 30 °C, 2 h in test [1] of 17.4%. In test [2], this molecule came in with a GTPase-Glo luminescence (remaining GTP) relative to buffer control, GEF-aided nucleotide exchange; 3 uM Rab23 Y79del, 2.25 uM Intu-Fuz, 5 uM GTP, 30 °C, 2 h of 78.2%.

B2: His-SUMO-tagged WT hRab23_(7-172), GMPPNP-loaded, Q9ULC3 Y79del (protein)
chain: EVAIKMVVVGNGAVGKSSMIQRYCKGIFTKDYKKTIGVDFLERQIQVNDEDVRLMLWDTAGQEEFDAITKAYRGAQACVLVFSTTDRESFEAVSSWREKVVAEVGDIPTVLVQNKIDLLDDSCIKNEEAEALAKRLKLRFYRTSVKEDLNVNEVFKYLAEKYLQK
Turning to B2, the percent of parent with KIF17-mCitrine, Q9P2E2 was 54.2%.

B3: ecotropic viral integration site 5-like protein (EVI5L) (enzyme)
chain: MASPTLSPDSSSQEALSAPTCSPTSDSENLSPDELELLAKLEEQNRLLEADSKSMRSMNGSRRNSGSSLVSSSSASSNLSHLEEDTWILWGRIANEWEEWRRRKEKLLKELIRKGIPHHFRAIVWQLLCSATDMPVKNQYSELLKMSSPCEKLIRRDIARTYPEHEFFKGQDSLGQEVLFNVMKAYSLVDREVGYCQGSAFIVGLLLMQMPEEEAFCVFVRLMQEYRLRELFKPSMAELGLCIYQFEYMLQEQLPDLNTHFRSQSFHTSMYASSWFLTLFLTTFPLPVATRVFDIFMYEGLEIVFRVGLALLQVNQAELMQLDMEGMSQYFQRVIPHQFDSCPDKLVLKAYQVKYNPKKMKRLEKEYAAMKSKEMEEQIEIKRLRTENRLLKQRIETLEKGQVTRAQEAEENYVIKRELAVVRQQCSSAAEDLQKAQSTIRQLQEQQENPRLTEDFVSHLETELEQSRLRETETLGALREMQDKVLDMEKRNSSLPDENNVAQLQEELKALKVREGQAVASTRELKLQLQELSDTWQAHLARGGRWKESPRKLVVGELQDELMSVRLREAQALAEGRELRQRVVELETQDHIHRNLLNRVEAERAALQEKLQYLAAQNKGLQTQLSESRRKQAEAECKSKEEVMAVRLREADSMAAVAEMRQRIAELEIQREEGRIQGQLNHSDSSQYIRELKDQIEELKAEVRLLKGPPPFEDPLAFDGLSLARHLDEDSLPSSDEELLGVGVGAALQDALYPLSPRDARFFRRLERPAKDSEGSSDSDADELAAPYSQGLDN
In turn, B3 came in with a GTPase-Glo luminescence (remaining GTP) relative to buffer control, GAP-stimulated GTPase activity; 3 uM Rab23, 2.25 uM EVI5L, 5 uM GTP, 20 mM EDTA, 30 °C, 2 h in test [3] of 58%. This molecule displayed a GTPase-Glo luminescence (remaining GTP) relative to buffer control, GAP-stimulated GTPase activity; 3 uM Rab23 Y79del, 2.25 uM EVI5L, 5 uM GTP, 20 mM EDTA, 30 °C, 2 h in test [4] of 75.7%.
